Measured values reported in IntAct's records for PubMed 17070842.

B1: Signal-regulatory protein beta-1 (Homo sapiens), O00241 (parent)
chain: MPVPASWPHLPSPFLLMTLLLGRLTGVAGEDELQVIQPEKSVSVAAGESATLRCAMTSLIPVGPIMWFRGAGAGRELIYNQKEGHFPRVTTVSELTKRNNLDFSISISNITPADAGTYYCVKFRKGSPDDVEFKSGAGTELSVRAKPSAPVVSGPAVRATPEHTVSFTCESHGFSPRDITLKWFKNGNELSDFQTNVDPAGDSVSYSIHSTARVVLTRGDVHSQVICEIAHITLQGDPLRGTANLSEAIRVPPTLEVTQQPMRAENQANVTCQVSNFYPRGLQLTWLENGNVSRTETASTLIENKDGTYNWMSWLLVNTCAHRDDVVLTCQVEHDGQQAVSKSYALEISAHQKEHGSDITHEAALAPTAPLLVALLLGPKLLLVVGVSAIYICWKQKA
B2: Tyrosine-protein phosphatase non-receptor type substrate 1 (Homo sapiens), P78324-4 (parent)
chain: MEPAGPAPGRLGPLLCLLLAASCAWSGVAGEEELQVIQPDKSVLVAAGETATLRCTATSLIPVGPIQWFRGAGPGRELIYNQKEGHFPRVTTVSDLTKRNNMDFSIRIGNITPADAGTYYCVKFRKGSPDVEFKSGAGTELSVRAKPSAPVVSGPAARATPQHTVSFTCESHGFSPRDITLKWFKNGNELSDFQTNVDPVGESVSYSIHSTAKVVLTREDVHSQVICEVAHVTLQGDPLRGTANLSETIRVPPTLEVTQQPVRAENQVNVTCQVRKFYPQRLQLTWLENGNVSRTETASTVTENKDGTYNWMSWLLVNVSAHRDDVKLTCQVEHDGQPAVSKSHDLKVSAHPKEQGSNTAAENTGSNERNIYIVVGVVCTLLVALLMAALYLVRIRQKKAQGSTSSTRLHEPEKNAREITQDTNDITYADLNLPKGKKPAPQAAEPNNHTEYASIQTSPQPASEDTLTYADLDMVHLNRTPKQPAPKPEPSFSEYASVQVPRK

Variants of: B1
Conditions: with cd47_human CD47, Q08722
Target sequence in this assay (Q08722 whole entry): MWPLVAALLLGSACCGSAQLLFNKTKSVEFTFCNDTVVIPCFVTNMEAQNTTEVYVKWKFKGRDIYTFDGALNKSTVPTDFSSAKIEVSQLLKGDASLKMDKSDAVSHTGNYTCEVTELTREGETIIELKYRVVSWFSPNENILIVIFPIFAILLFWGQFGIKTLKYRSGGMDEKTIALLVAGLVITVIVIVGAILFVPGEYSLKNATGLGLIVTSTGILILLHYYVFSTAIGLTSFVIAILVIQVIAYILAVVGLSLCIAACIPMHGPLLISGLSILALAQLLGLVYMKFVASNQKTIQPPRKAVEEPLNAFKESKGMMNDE

| effect of a mutation on the interaction | Variant |
| --- | --- |
| causing an interaction | M56V;M66Q;A73P |
| causing an interaction | M56V;M66Q |
| causing an interaction | M56V;M66Q;L101M |

Variants of: B2
Conditions: with cd47_human CD47, Q08722
Target sequence in this assay (Q08722 whole entry): as above

| effect of a mutation on the interaction | Variant |
| --- | --- |
| disrupting interaction strength | A57M |
